In US20250289897A1, “LEPTIN RECEPTOR AGONISTIC ANTIBODY AS MONO OR COMBO THERAPIES TO TREAT OBESITY” (ELI LILLY AND COMPANY, priority 2024, published 2025):
Marks after values point to notes of the source that are not given here.

Target: T1, mutant LEPR-A409E (Homo sapiens, UniProt P48357, A409E)
T1 construct: expressed in transfected cells; host or cells: HEK293
T1 sequence (P48357 22-1165 A409E): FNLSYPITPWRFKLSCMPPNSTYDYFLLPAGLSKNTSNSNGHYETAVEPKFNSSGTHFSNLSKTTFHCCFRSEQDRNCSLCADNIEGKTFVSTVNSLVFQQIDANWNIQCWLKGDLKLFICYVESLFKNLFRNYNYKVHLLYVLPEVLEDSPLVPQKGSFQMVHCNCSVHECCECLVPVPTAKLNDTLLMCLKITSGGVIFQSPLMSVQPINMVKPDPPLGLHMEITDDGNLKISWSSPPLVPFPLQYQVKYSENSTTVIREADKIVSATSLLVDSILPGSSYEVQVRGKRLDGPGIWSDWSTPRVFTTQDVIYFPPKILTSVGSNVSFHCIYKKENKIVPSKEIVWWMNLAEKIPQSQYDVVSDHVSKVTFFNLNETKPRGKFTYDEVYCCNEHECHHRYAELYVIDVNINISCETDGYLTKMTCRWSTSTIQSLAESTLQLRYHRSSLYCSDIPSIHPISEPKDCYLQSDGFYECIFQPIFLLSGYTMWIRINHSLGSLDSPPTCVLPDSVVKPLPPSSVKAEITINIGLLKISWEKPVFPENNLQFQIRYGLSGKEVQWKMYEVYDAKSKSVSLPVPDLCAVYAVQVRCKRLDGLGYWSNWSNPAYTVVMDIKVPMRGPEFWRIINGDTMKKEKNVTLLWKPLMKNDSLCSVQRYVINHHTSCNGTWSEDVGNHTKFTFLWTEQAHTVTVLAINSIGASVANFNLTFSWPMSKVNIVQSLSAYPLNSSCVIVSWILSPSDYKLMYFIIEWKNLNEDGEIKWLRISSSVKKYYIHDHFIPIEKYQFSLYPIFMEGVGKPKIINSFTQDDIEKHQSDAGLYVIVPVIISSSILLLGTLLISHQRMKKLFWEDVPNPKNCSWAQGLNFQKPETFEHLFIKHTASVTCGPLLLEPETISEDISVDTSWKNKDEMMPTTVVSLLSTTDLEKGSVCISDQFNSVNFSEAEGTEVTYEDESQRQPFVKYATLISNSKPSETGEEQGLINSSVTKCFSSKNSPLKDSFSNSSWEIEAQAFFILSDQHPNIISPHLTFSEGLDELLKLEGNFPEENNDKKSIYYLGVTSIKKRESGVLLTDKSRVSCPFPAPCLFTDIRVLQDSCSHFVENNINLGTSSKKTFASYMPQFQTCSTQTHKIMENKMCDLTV
Assay: STAT3-Luciferase reporter assay in HEK293 cells that express hLEPR-A409E
Format: cell-based
Procedure: Missense mutation A409E in LEPR gene was associated with autosomal recessive early onset of obesity in human (Farooqi et al., 2007, N Engl J Med 356 (3): 237-247). […] To test whether the anti-LEPR antibodies can activate these mutant human LEPR receptors, the STAT3-Luciferase reporter assay was established using HEK293 cells that express hLEPR-A409E. These cells were cultured in growth medium DMEM/F12 (Gibco, #12430-054), 10% fetal bovine serum (FBS, Gibco, #10082-147), antibiotics (Gibco, #15240-062), Sodium Pyruvate (Gibco, #11360-070) and GlutaMax supplement (Gibco, #35050-061) in the presence of drug selection 250 μg/mL of Hygromycin (Invitrogen, #10687010) and 800 μg/mL of Geneticin (Corning, #30-234-C1).
Before plating the cells for luciferase assays, the poly-D-Lysine coated 96-well plates (Corning Inc, Bio Coat, #354651, Poly-D-Lysing coated) were rinsed once with phosphate buffered solution (PBS) and once by plating medium. Then, 20,000 to 24,000 STAT3-Luciferase reporter cells were seeded onto the poly-D-lysine 96-well plates in 100 μL/well plating medium consist of DMEM/F12 (3:1, Gibco, #93-0152DK), 10% fetal bovine serum (FBS, Gibco, #10082-147), 1x GlutaMax supplement (Gibco, #35050061) 20 mM HEPES (Gibco, #15630-080) and antibiotics (Gibco, 15240-062). After overnight culture at 37°° C. with 5% CO2, the culture medium was changed to 75 μL assay medium containing OPTI-MEM (Gibco, #31985-070) with 1% BSA (BSA Fraction V (7.5%), Gibco, #15260-037), 0.1% dialyzed fetal bovine serum (FBS, Gibco, #26400-044) for 1 hour at 37° C. with 5% CO2. Test articles were diluted into 25 μL assay medium and were added to each well. Cells were further incubated for 20 hours at 37° C. with 5% CO2. Cell lysing and One-Glo luciferase substrate solution (Promega, #E6120) were then added to each well, and relative luciferase units (RLUs) were measured on a ClarioStar plate reader. The concentration response curves were then plotted as raw RLU readings to the function of log drug concentrations. EC50 was calculated using GraphPad Prism software.

- Bottom (RLU) (LEPR-A409E STAT3-luciferase): 451.8 RLU
- Hill Slope (LEPR-A409E STAT3-luciferase): 0.2011
- Top (RLU) (LEPR-A409E, top of curve projected by GraphPad Prism software): 259289* RLU
- activation of LEPR-A409E (STAT3-luciferase): did not activate
Substance: human leptin: recombinant human leptin protein (SEQ ID NO:27), positive control
